Test [1] has as its target T1, PD-L1 on the surface of tumor cells (human lung adenocarcinoma A549 cells, human melanoma A375 cells) (human, UniProt Q9NZQ7 19-290).
T1 construct: whole, on cells; No PD-L1-negative control cell is described; also called PD-L1 protein on the surface of tumor cells
Briefly: flow cytometry on A375 and A549 cells. As for the experimental part: Human melanoma A375 cells and human lung adenocarcinoma A549 cells were diluted to 1×10⁶ cells/mL with PBS and added to 1.5 mL EP tubes at 100 μL/tube. 10 μL/tube of rat serum was added and blocked at 4° C. for 30 minutes. […] 1 mL of PBS was added to the EP tube. The system was centrifuged at 4° C. and 3500 rpm for 5 min. The supernatant was discarded, and the system was washed again with PBS. After centrifugation, the supernatant was discarded, and the cells were resuspended with 100 μL/tube PBS. 1 μL/tube of Alexa-647-labeled rat anti-human secondary antibody (Biolegend) was added and incubated at 4° C. in the dark for 30 min. The system was washed twice with PBS, and the supernatant was discarded after centrifugation. The cells were resuspended with 200 μL/tube PBS and detected by flow cytometry.
A general note: A flow cytometer gives signals particle by particle.

The target of test [2] is T2, Human PD-L1-Fc fusion protein (purchased from Acro) (human, UniProt Q9NZQ7 19-238).
T2 construct: extracellular domain; also called PD-L1 fusion protein; PD-L1 extracellular region protein; not shown: Fc part of the bought fusion protein
T2 sequence (Q9NZQ7 19-238): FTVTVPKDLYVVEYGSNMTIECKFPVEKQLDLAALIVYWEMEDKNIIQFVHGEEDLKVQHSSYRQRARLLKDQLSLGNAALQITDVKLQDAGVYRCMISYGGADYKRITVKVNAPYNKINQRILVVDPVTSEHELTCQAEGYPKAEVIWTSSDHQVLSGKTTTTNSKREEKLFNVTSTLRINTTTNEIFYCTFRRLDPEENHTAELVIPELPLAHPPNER
Briefly: ELISA, PD-L1-Fc coated at 1 µg/ml; h19B8 binds slightly more strongly than CD3×h19B8.

Test [3] concerns the target T2, Human PD-L1-Fc fusion protein …. Briefly: ELISA. A general note: ELISA stands for enzyme-linked immunosorbent assay.
For test [4], the target named is T1, PD-L1 on the surface of tumor cells …. Briefly: flow cytometry on A549 cells. The method, then: 1 mL of PBS was added to the EP tube. […] The supernatant was discarded, and the system was washed again with PBS. […] The system was washed twice with PBS, and the supernatant was discarded after centrifugation. The cells were resuspended with 200 μL/tube PBS and detected by flow cytometry.

Test [5] deals with T2, Human PD-L1-Fc fusion protein …. Briefly: ELISA, PD-L1-Fc coated at 1 µg/ml, anti-mouse IgG-HRP.
Procedure: The PBS buffer in the 96-well plate was removed, and the plate was washed 6 times with PBST (pH 7.2 PBS containing 0.1% Tween 20) buffer. PBS/10% BSA was added at 200 μl/well and incubated at 37° C. for 2 h for blocking. The blocking solution was removed, and the plate was washed 6 times with PBST. […] The reaction system was removed, and the plate was washed 6 times with PBST. HRP (horseradish peroxidase)-labeled anti-mouse IgG secondary antibody was diluted with PBST/0.05% BSA at 100 μl/well and incubated at 37° C. for 1 h. After washing the plate 6 times with PBST, 80 μl/well TMB (tetramethylbenzidine) was added and incubated at room temperature for 3 min. 4 M sulfuric acid was added at 80 μl/well to terminate the reaction. The absorbance was read at 450 nm using a microplate reader.

T1 sequence (Q9NZQ7 19-290): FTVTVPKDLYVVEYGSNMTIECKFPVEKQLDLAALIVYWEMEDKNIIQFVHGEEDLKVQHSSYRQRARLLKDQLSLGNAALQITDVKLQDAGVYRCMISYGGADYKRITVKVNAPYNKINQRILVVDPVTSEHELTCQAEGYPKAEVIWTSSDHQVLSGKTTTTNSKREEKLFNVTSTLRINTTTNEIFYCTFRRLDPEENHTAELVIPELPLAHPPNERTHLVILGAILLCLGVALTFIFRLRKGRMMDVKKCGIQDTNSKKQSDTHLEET

B1: humanized PD-L1 antibody h19B8-hIgG1LALA (h19B8-hIgG1LALA heavy chain / h19B8-hK light chain) (antibody, V domains shown)
VH: QVQLVQSGAEVKKPGASVKVSCKASGYSFTGYYMHWVRQAPGQGLEWIGRINPYNGATTYSQNFKDRATMTVDTSISTAYMELSRLRSDDTAVYYCVPTGMGYFLMDYWGQGTLVTVSS
VL: DIQLTQSPSFLSASVGDRVTITCKASQDVGSAVVWYQQKPGKAPKLLIYWASTRHTGVPSRFSGSGSGTEFTLTISSLQPEDFATYFCQQFTSYPTFGQGTKLEIKR
notes: also called humanized 19B8 antibody; h19B8 monoclonal antibody
In the case of B1, the binding result in test [1] and in test [2] was “binds” each time.

B2: chimeric antibody 19B8-hIgG1LALA (19B8-hIgG1LALA heavy chain / 19B8-hK light chain) (antibody)
heavy: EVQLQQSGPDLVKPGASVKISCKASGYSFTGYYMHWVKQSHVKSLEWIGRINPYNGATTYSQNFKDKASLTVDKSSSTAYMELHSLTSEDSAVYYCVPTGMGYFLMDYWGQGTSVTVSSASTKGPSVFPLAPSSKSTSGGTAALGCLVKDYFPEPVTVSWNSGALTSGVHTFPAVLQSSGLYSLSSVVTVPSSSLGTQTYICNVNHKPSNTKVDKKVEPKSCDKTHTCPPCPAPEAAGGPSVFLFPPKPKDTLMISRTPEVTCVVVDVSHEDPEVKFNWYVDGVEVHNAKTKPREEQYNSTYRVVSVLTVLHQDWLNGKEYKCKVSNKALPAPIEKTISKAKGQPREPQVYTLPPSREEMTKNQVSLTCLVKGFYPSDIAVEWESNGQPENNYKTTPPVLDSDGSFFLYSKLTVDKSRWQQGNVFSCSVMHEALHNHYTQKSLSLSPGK
light: DIVMTQSHKFMSASVGDRVSITCKASQDVGSAVVWYRQKPGQSPKLLIYWASTRHTGVPDRFTGSGSGTDFTLTISNVQSEDLADYFCQQFTSYPTFGSGTRLEIKRTVAAPSVFIFPPSDEQLKSGTASVVCLLNNFYPREAKVQWKVDNALQSGNSQESVTEQDSKDSTYSLSSTLTLSKADYEKHKVYACEVTHQGLSSPVTKSFNRGEC
notes: Murine 19B8 variable regions on human IgG1 LALA / human kappa constant regions; also called 19B8 chimeric antibody; human-murine chimeric PD-L1 antibody
Turning to B2, the binding result in test [3] and in test [1] was “binds” in each case.

B3: murine 19B8 antibody (19B8-mIgG1 heavy chain / 19B8-mK light chain) (antibody)
heavy: EVQLQQSGPDLVKPGASVKISCKASGYSFTGYYMHWVKQSHVKSLEWIGRINPYNGATTYSQNFKDKASLTVDKSSSTAYMELHSLTSEDSAVYYCVPTGMGYFLMDYWGQGTSVTVSSAKTTPPSVYPLAPGSAAQTNSMVTLGCLVKGYFPEPVTVTWNSGSLSSGVHTFPAVLQSDLYTLSSSVTVPSSPRPSETVTCNVAHPASSTKVDKKIVPRDCGCKPCICTVPEVSSVFIFPPKPKDVLTITLTPKVTCVVVDISKDDPEVQFSWFVDDVEVHTAQTQPREEQFNSTFRSVSELPIMHQDWLNGKEFKCRVNSAAFPAPIEKTISKTKGRPKAPQVYTIPPPKEQMAKDKVSLTCMITDFFPEDITVEWQWNGQPAENYKNTQPIMNTNGSYFVYSKLNVQKSNWEAGNTFTCSVLHEGLHNHHTEKSLSHSPGK
light: DIVMTQSHKFMSASVGDRVSITCKASQDVGSAVVWYRQKPGQSPKLLIYWASTRHTGVPDRFTGSGSGTDFTLTISNVQSEDLADYFCQQFTSYPTFGSGTRLEIKRADAAPTVSIFPPSSEQLTSGGASVVCFLNNFYPKDINVKWKIDGSERQNGVLNSWTDQDSKDSTYSMSSTLTLTKDEYERHNSYTCEATHKTSTSPIVKSFNRNEC
notes: Recombinant murine IgG1/kappa made in ExpiCHO-S cells; also called murine PD-L1 antibody 19B8; murine PD-L1 antibody (19B8)
B3: the binding result in test [4] and in test [5] was “binds” throughout.
